Molecular target: GST-PreScission-p62 FIR 4P (human) (UniProt Q13501)
Assay: SPR

Substance: His8-TEV-LC3B (1 to 125) (from UniProt Q9GZQ8 1-120) (natural protein)
- Kd estimated from the kinetics: 80 nM
- half-life: 20 min
